Reference: US20250043313

Biological target: SuperFi-Cas9 (7-D Cas9) 7-D: seven RuvC loop residues shown in FIG. 4b each mutated to Asp (individual residues not listed in text) (Streptococcus pyogenes) (UniProt Q99ZW2)
Assay: cleavage_in_vitro
Details: PAM TGG, 10 mM Mg2+, 37 C

Sequence | activity (kobs +/- 0.1, amplitude 7.7 nM, 6.3-fold preference over 18-20 MM in competition) [s⁻¹] | activity (kobs +/- 0.0002, amplitude 8.4 nM, 500-fold slower than on-target) [s⁻¹]
GACGCAUAAAGAUGAGACGC / AGCTGACGTTTGTACTCCAGCGTCTCATCTTTATGCGTCAGCAGAGATTTCTGCT / AGCAGAAATCTCTGCTGACGCATAAAGATGAGACGCTGGAGTACAAACGTCAGCT [sgRNA ; On-target DNA] | 2 | –
GACGCAUAAAGAUGAGACGC / AGCTGACGTTTGTACTCCAGCGTCTCATCTTTATGCCAGAGCAGAGATTTCTGCT / AGCAGAAATCTCTGCTCTGGCATAAAGATGAGACGCTGGAGTACAAACGTCAGCT [sgRNA ; 18-20 MM DNA] | – | 0.004
